Conditions in all cases: partners not purified
Assay [1] has as its target T1, CCR7-SmBiT (Homo sapiens, UniProt P32248).
T1 construct: Chemokine receptor CCR7, human; amplified from pcDNA3-CCR7-HA and ligated to SmBiT amplified from pAAVS1P-iCLHN; A Gly/Ser linker between CCR7 and SmBiT is surmised from the primer; also called pcDNA3-CCR7-SmBiT; pBiT2.1-C-CCR7-SmBiT; source: HEK293, transiently transfected, in cells; not shown: SmBiT (Small BiT of NanoLuc), C-terminal, kept
The experiment in a line: split reporter (BiFC, NanoBiT); split-luciferase complementation; HEK293 cells co-expressing GPCR-SmBiT and Nb-LgBiT (plasmid ratio 1:1), coelenterazine H 5 µM, luminescence before and after 10 µM isoproterenol, 1.5 µg/mL CCL19 or PBS.

For assay [2], the target named is T2, CCR7-YFP2 (Homo sapiens, UniProt P32248).
T2 construct: Chemokine receptor CCR7, human; amplified by PCR and subcloned into the split-YFP2 BiFC vector; also called CC chemokine receptor 7; CCR7-Y2; source: HEK293, transiently or stably transfected, in cells; not shown: split-YFP2, C-terminal, kept
The experiment in a line: split reporter (BiFC, NanoBiT); BiFC read by confocal microscopy; HEK293 cells stably expressing CCR7-YFP2, transiently transfected with Nb-YFP1, unstimulated or stimulated with 0.5 µg/mL CCL19, fixed.

For assay [3], the target named is T3, β2AR-YFP2 (human, UniProt P07550).
T3 construct: also called β2-adrenergic receptor; ADRB2; source: HEK293, transiently transfected, in cells; not shown: split-YFP2, C-terminal, kept
As to the kind of experiment: split reporter (BiFC, NanoBiT); BiFC read by flow cytometry; HEK293 cells co-expressing Nb-YFP1 and GPCR-YFP2, stimulated 20 min with 10 µM isoproterenol or 0.5 µg/mL CCL19, fixed in 4% formaldehyde.

Assay [4] concerns the target T4, β2AR-SmBiT (UniProt P07550).
T4 construct: β2-adrenergic receptor; also called pBiT2.1-C-β2AR-SmBiT; source: HEK293, transiently transfected, in cells; not shown: SmBiT (Small BiT of NanoLuc), C-terminal, kept
The experiment in a line: split reporter (BiFC, NanoBiT); G-protein competition assay based on split-luciferase complementation; HEK293 cells co-expressing GPCR-SmBiT, LgBiT-mini-Gαi and Nb-YFP1 or pcDNA3 (1:1:1), stimulated with 10 µM isoproterenol or 1.5 µg/mL CCL19; fold increase in luminescence over baseline.

The target of assay [5] is T4, β2AR-SmBiT. The experiment in a line: split reporter (BiFC, NanoBiT); split-luciferase complementation; HEK293 cells co-expressing GPCR-SmBiT and Nb-LgBiT (plasmid ratio 1:1), coelenterazine H 5 µM, luminescence before and after 10 µM isoproterenol, 1.5 µg/mL CCL19 or PBS.

This is an account of results in PMC6566259, “Engineering of Nanobodies Recognizing the Human Chemokine Receptor CCR7” (International Journal of Molecular Sciences, 2019).

T2 sequence (P32248 25-378): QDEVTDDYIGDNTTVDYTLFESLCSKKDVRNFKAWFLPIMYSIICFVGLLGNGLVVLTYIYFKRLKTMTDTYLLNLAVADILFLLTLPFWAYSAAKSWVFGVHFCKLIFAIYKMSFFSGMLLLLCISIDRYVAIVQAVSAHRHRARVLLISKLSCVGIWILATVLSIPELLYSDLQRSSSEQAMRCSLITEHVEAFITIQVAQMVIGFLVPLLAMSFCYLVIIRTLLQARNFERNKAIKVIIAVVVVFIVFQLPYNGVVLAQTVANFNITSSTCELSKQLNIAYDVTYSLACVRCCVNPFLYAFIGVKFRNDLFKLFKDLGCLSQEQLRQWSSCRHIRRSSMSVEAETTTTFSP
T1 sequence (P32248 25-378): as above

B1: Nb38-LgBiT (VHH)
VHH: QVQLQESGGGLVQAGGSLRLSCAASGHTMFSNTMGWYRQAPGKQRELVAAIHSGGSTNYANSVKGRFTISRDNAANTVYLQMNSLKPEDTAVYYCNVKDFLGLIHFRDYWGQGTQVTVSS
notes: As the VHH of m7 (Nb38): Nb80 with randomised segments in CDR1 and CDR3; source: HEK293, transiently transfected, in cells; not shown: LgBiT (Large BiT of NanoLuc), C-terminal, kept
For the molecule B1, in assay [1], the binding result is on record as “binds”.

B2: Nb38-YFP1 (VHH)
VHH: B1 VHH
notes: As the VHH of m1 (Nb80) with randomised segments in CDR1 and CDR3; Clone from the synthetically randomised Nb80 library; also called Nb38-Y1; source: HEK293, transiently transfected, in cells; not shown: split-YFP1 (N-terminal part of split-YFP), C-terminal, kept
On to B2, for which the binding result in assay [2] is “binds”.

B3: Nb5-LgBiT (VHH)
VHH: QVQLQESGGGLVQAGGSLRLSCAASGCVPGPNTMGWYRQAPGKQRELVAAIHSGGSTNYANSVKGRFTISRDNAANTVYLQMNSLKPEDTAVYYCNVKDETRTRHQNDYWGQGTQVTVSS
notes: As the VHH of m5 (Nb5): Nb80 with randomised segments in CDR1 and CDR3; source: HEK293, transiently transfected, in cells; not shown: LgBiT (Large BiT of NanoLuc), C-terminal, kept
Take B3: in assay [1], the binding result was “binds”.

B4: Nb5-YFP1 (VHH)
VHH: B3 VHH
notes: As the VHH of m1 (Nb80) with randomised segments in CDR1 and CDR3; Clone from the synthetically randomised Nb80 library; also called Nb5-Y1; source: HEK293, transiently transfected, in cells; not shown: split-YFP1 (N-terminal part of split-YFP), C-terminal, kept
On to B4, for which the binding result in assay [2] is given as “binds”.

B5: Nb80-YFP1 (VHH)
VHH: QVQLQESGGGLVQAGGSLRLSCAASGSIFSINTMGWYRQAPGKQRELVAAIHSGGSTNYANSVKGRFTISRDNAANTVYLQMNSLKPEDTAVYYCNVKDYGAVLYEYDYWGQGTQVTVSS
notes: Nanobody Nb80 against the β2-adrenergic receptor; The reverse PCR primer appears to encode a His6 stretch at the C-terminus of Nb80, ahead of YFP1 (surmised from the primer); No PDB id is printed; also called Nb80-Y1; pcDNA3-Nb80-YFP1; source: HEK293, transiently transfected, in cells; not shown: split-YFP1 (N-terminal part of split-YFP), C-terminal, kept
With B5, the binding result in assay [3] and in assay [4] was “binds” each time.

B6: Nb80-LgBiT (VHH)
VHH: B5 VHH
notes: As the VHH of m1 (Nb80); Nb80 was moved from pcDNA3-Nb80-YFP1 into pcDNA3-CCR7-LgBiT by HindIII and ClaI, followed by site-directed mutagenesis at the junction; A Gly/Ser linker before LgBiT is surmised from the primers; also called pcDNA3-Nb80-LgBiT; source: HEK293, transiently transfected, in cells; not shown: LgBiT (Large BiT of NanoLuc), C-terminal, kept
B6: the binding result in assay [5] is recorded as “binds”.

B7: Nb1-LgBiT (VHH)
VHH: QVQLQESGGGLVQAGGSLRLSCAASGLRFSRNTMGWYRQAPGKQRELVAAIHSGGSTNYANSVKGRFTISRDNAANTVYLQMNSLKPEDTAVYYCNVKDWNNQPNGDDYWGQGTQVTVSS
notes: As the VHH of m3 (Nb1): Nb80 with randomised segments in CDR1 and CDR3; source: HEK293, transiently transfected, in cells; not shown: LgBiT (Large BiT of NanoLuc), C-terminal, kept
Turning to B7, the binding result in assay [1] is reported as “binds”.

B8: Nb1-YFP1 (VHH)
VHH: B7 VHH
notes: As the VHH of m1 (Nb80) with randomised segments in CDR1 and CDR3; Clone from the synthetically randomised Nb80 library; also called Nb1-Y1; source: HEK293, transiently transfected, in cells; not shown: split-YFP1 (N-terminal part of split-YFP), C-terminal, kept
With B8, the binding result in assay [2] is reported as “binds”.
